# According to patent US10457718B2, “Compounds for the treatment of cancer” (Rheinisch-Westfaelische Technische Hochschule Aachen, priority 2015, dated 2019):
# B1: 1-681_ITIH5: recombinant isolated polypeptide, amino acids 1-681 of the full-length ITIH5 protein (942 amino acids) (protein)
# chain: MLLLLGLCLGLSLCVGSQEEAQSWGHSSEQDGLRVPRQVRLLQRLKTKPLMTEFSVKSTIISRYAFTTVSCRMLNRASEDQDIEFQMQIPAAAFITNFTMLIGDKVYQGEITEREKKSGDRVKEKRNKTTEENGEKGTEIFRASAVIPSKDKAAFFLSYEELLQRRLGKYEHSISVRPQQLSGRLSVDVNILESAGIASLEVLPLHNSRQRGSGRGEDDSGPPPSTVINQNETFANIIFKPTVVQQARIAQNGILGDFIIRYDVNREQSIGDIQVLNGYFVHYFAPKDLPPLPKNVVFVLDSSASMVGTKLRQTKDALFTILHDLRPQDRFSIIGFSNRIKVWKDHLISVTPDSIRDGKVYIHHMSPTGGTDINGALQRAIRLLNKYVAHSGIGDRSVSLIVFLTDGKPTVGETHTLKILNNTREAARGQVCIFTIGIGNDVDFRLLEKLSLENCGLTRRVHEEEDAGSQLIGFYDEIRTPLLSDIRIDYPPSSVVQATKTLFPNYFNGSEIIIAGKLVDRKLDHLHVEVTASNSKKFIILKTDVPVRPQKAGKDVTGSPRPGGDGEGDPNHIERLWSYLTTKELLSSWLQSDDEPEKERLRQRAQALAVSYRFLTPFTSMKLRGPVPRMDGLEEAHGMSAAMGPEPVVQSVRGAGTQPGPLLKKPYQPRIKISKTSVDGD
# modifications: polypeptide 1-681_ ITIH5
# B2: 213_vWA: isolated recombinant polypeptide comprising only the vWA domain of ITIH5, 213 amino acids (protein)
# chain: GYFVHYFAPKDLPPLPKNVVFVLDSSASMVGTKLRQTKDALFTILHDLRPQDRFSIIGFSNRIKVWKDHLISVTPDSIRDGKVYIHHMSPTGGTDINGALQRAIRLLNKYVAHSGIGDRSVSLIVFLTDGKPTVGETHTLKILNNTREAARGQVCIFTIGIGNDVDFRLLEKLSLENCGLTRRVHEEEDAGSQLIGFYDEIRTPLLSDIRIDY
# modifications: “vWA” domain of the inter-alpha-trypsin inhibitor heavy chain
# B3: 1-162_VIT: isolated recombinant polypeptide comprising only the VIT domain of ITIH5, amino acid 1 to 162 (protein)
# chain: MLLLLGLCLGLSLCVGSQEEAQSWGHSSEQDGLRVPRQVRLLQRLKTKPLMTEFSVKSTIISRYAFTTVSCRMLNRASEDQDIEFQMQIPAAAFITNFTMLIGDKVYQGEITEREKKSGDRVKEKRNKTTEENGEKGTEIFRASAVIPSKDKAAFFLSYEE
# modifications: VIT- domain of the inter-alpha-trypsin inhibitor heavy chain
# Columns and labels:
# [1] = tested on: MDA-MB231 breast cancer cells; test: short-term cell number WST assay / XTT proliferation assay of small peptides; format: cell-based, human; settings: 300 ng/ml
# Text: FIG. 6 presents diagrams showing the tumor suppressive impact of small peptides derived from ITIH5 on aggressive MDA-MB231 breast cancer cells. Growth inhibition mediated by chemically synthesized ITIH5-derived peptides using a short-term cell number WST assay.
# These small protein fragments can be further optimized (stabilization, modification) to obtain suitable candidates for novel anti-tumor drugs. Use of biological drugs in targeted cancer therapy is a strongly growing area in cancer care.
# [2] = tested on: MDA-MB231 breast cancer cells; test: short-term cell number assay (CASY cell counter); format: cell-based, human; settings: for inhibition of tumor cell growth: dose dependent, maximal effect
# Description: (§1) Various functional readout systems were available to determine the tumor suppressive impact of 1-681_ITIH5 treatment in vitro: A) Cell number assay: Numbers of living cells were quantified after four days of culturing using the CASY cell counter and analyzer (Roche Diagnostics, Mannheim, Germany). B) XTT proliferation assay: the cell proliferation KIT (XTT) was used according to the manufacturer's recommendations (Roche). C) Colony formation assay: 1×10^3 cells were seeded into six-well plates. After 14 days of culturing grown colonies were fixed with 3.5% formaldehyde/80% methanol and stained with 0.1% crystal violet. D) Wound healing assay: a confluent monolayer was scratched with a pipette tip. Afterwards cell migration within the wounded area was analyzed by using a light microscope over three days.
# as §1, with “Highly purified peptides were used for functional in vitro validation. Various” for “Various”, “ITIH5 protein subfragments” for “1-681_ITIH5 treatment”, “B)” for “B) XTT proliferation assay: the cell proliferation KIT (XTT) was used according to the manufacturer's recommendations (Roche). C)”, “violet. C) In order to ensure specificity of observed effects of the ITIH5 subfragments a LDH Cytotoxicity Detection Kit (Roche) was performed according to the manufacturer's recommendations.” for “violet.”
# [3] = tested on: MDA-MB231 breast cancer cells; test: long-term colony formation assay; format: cell-based, human; settings: p<0.001
# Description: as §1
# [4] = stability in supernatant of treated cancer cells (western blot); format: in vitro ADME; settings: 1 μg/ml added to supernatant of MDA-MB231 cells; western blotting
# Description: FIG. 2 is a diagram showing the performance of the recombinant 1-681_ITIH5 in vitro. A) Persisting stability of 1-681_ITIH5 over 48 h in vitro. 1 μg/ml of 1-681_ITIH5 was added to the supernatant of MDA-MB231 breast cancer cells. To the given time points 1 ml of the supernatant was harvested and non-degraded 1-681_ITIH5 was isolated and analyzed by western blotting (as shown). B) LDH cytotoxicity assay.
# Before applying 1-681_ITIH5 in vitro both the stability and the purity were tested by using a western blot analysis.
# [5] = tested on: MDA-MB231 breast cancer cells; test: LDH Cytotoxicity Detection assay; format: cell-based, human; settings: after 72 h vs controls
# Description: (§2) In order to ensure specificity of observed effects of 1-681_ITIH5, a LDH Cytotoxicity Detection assay (Roche) was performed according to the manufacturer's recommendations. Furthermore MDA-MB231 single cell clones were generated which stably express ITIH5 protein under a strong CMV promoter. These endogenous ITIH5-positive clones are optimal control cells, i.e. those ITIH5-positive cells should not show further sensitivity against 1-681_ITIH5 in growth inhibitory experiments.
# Highly purified peptides were used for functional in vitro validation. Various functional readout systems were available to determine the tumor suppressive impact of ITIH5 protein subfragments in vitro: A) Cell number assay: Numbers of living cells were quantified after four days of culturing using the CASY cell counter and analyzer (Roche Diagnostics, Mannheim, Germany). B) Colony formation assay: 1×10^3 cells were seeded into six-well plates. After 14 days of culturing grown colonies were fixed with 3.5% formaldehyde/80% methanol and stained with 0.1% crystal violet. C) In order to ensure specificity of observed effects of the ITIH5 subfragments a LDH Cytotoxicity Detection Kit (Roche) was performed according to the manufacturer's recommendations. […] Afterwards cell migration within the wounded area was analyzed by using a light microscope over three days.
# [6] = tested on: MDA-MB231 endogenously ITIH5 positive cells; test: colony formation assay in ITIH5-expressing single cell clones; format: cell-based, human; settings: MDA-MB231 clones stably expressing ITIH5
# Description: as §1, §2
# [7] = tested on: BT20 breast cancer cell line; test: colony formation assay; format: cell-based, human
# Description: as §1
# [8] = tested on: T47D breast cancer cell line; test: colony formation assay; format: cell-based, human
# Description: as §1
# [9] = tested on: SK-MES1 lung cancer cells; test: XTT proliferation assay; format: cell-based, human; settings: dose-dependent
# Description: as §1
# [10] = tested on: MDA-MB231 breast cancer cells; test: scratch wound healing assay (cell migration); format: cell-based, human; settings: over 3 days
# Description: as §1
# Highly purified peptides were used for functional in vitro validation. Various functional readout systems were available to determine the tumor suppressive impact of ITIH5 protein subfragments in vitro: A) Cell number assay: Numbers of living cells were quantified after four days of culturing using the CASY cell counter and analyzer (Roche Diagnostics, Mannheim, Germany). B) Colony formation assay: 1×10^3 cells were seeded into six-well plates. […] Afterwards cell migration within the wounded area was analyzed by using a light microscope over three days.
# [11] = tested on: A549 lung cancer cells; test: short-term cell number assay (CASY cell counter); format: cell-based, human; settings: dose dependent, maximal effect
# Description: (§3) Highly purified peptides were used for functional in vitro validation. Various functional readout systems were available to determine the tumor suppressive impact of ITIH5 protein subfragments in vitro: A) Cell number assay: Numbers of living cells were quantified after four days of culturing using the CASY cell counter and analyzer (Roche Diagnostics, Mannheim, Germany). B) Colony formation assay: 1×10^3 cells were seeded into six-well plates. After 14 days of culturing grown colonies were fixed with 3.5% formaldehyde/80% methanol and stained with 0.1% crystal violet. C) In order to ensure specificity of observed effects of the ITIH5 subfragments a LDH Cytotoxicity Detection Kit (Roche) was performed according to the manufacturer's recommendations. D) Wound healing assay: a confluent monolayer was scratched with a pipette tip. Afterwards cell migration within the wounded area was analyzed by using a light microscope over three days.
# [12] = tested on: A549 lung cancer cells; test: LDH Cytotoxicity Detection assay; format: cell-based, human; settings: after 72 h vs controls
# Description: as §3
molecule,measurement,setting,value
#26: chemically synthesized peptide derived from the ITIH5 VIT-domain (SVKSTIISRYAFTTVSCRML; isolated peptide),"cancer cell growth, single peptides",[1],significant impairment of cancer cell growth
#32: chemically synthesized peptide derived from the ITIH5 VIT-domain (MLNRASEDQDIEFQMQIPAA; isolated peptide),"cancer cell growth, single peptides",[1],significant impairment of cancer cell growth
#98: chemically synthesized peptide derived from the ITIH5 vWA domain (GDIQVLNGYFVHYFAPKDLP; isolated peptide),"cancer cell growth, single peptides",[1],significant impairment of cancer cell growth
#102: chemically synthesized peptide derived from the ITIH5 vWA domain (YFAPKDLPPLPKNVVFVLDS; isolated peptide),"cancer cell growth, single peptides",[1],significant impairment of cancer cell growth
#108: chemically synthesized peptide derived from the ITIH5 vWA domain (DSSASMVGTKLRQTKDALFT; isolated peptide),"cancer cell growth, single peptides",[1],significant impairment of cancer cell growth
#111: chemically synthesized peptide derived from the ITIH5 vWA domain (KLRQTKDALFTILHDLRPQD; isolated peptide),"cancer cell growth, single peptides",[1],significant impairment of cancer cell growth
B1,Growth inhibition,"[2]; 100 ng/ml medium, repeated experiments",up to 20%
same,Growth inhibition,"[2]; 1 μg/ml medium, highly significant",up to 50%
same,colony growth after 14 days in culture (densitometrical evaluation),[3],significantly impairs colony growth
same,stability in the supernatant of treated cancer cells,[4],≥ 48 h
same,unspecific cytotoxicity (LDH),[5],no unspecific cytotoxicity
same,growth inhibition in ITIH5-positive cells,[6],not able to mediate growth inhibition
same,colony growth,[7],significantly reduced colony growth
same,colony growth,[8],significantly reduced colony growth
same,cell growth inhibition (XTT),[9],strongly mediates cell growth inhibition
same,tumor cell migration / cell motility,[10],impairs furthermore tumor cell migration
B2,inhibition of tumor cell growth,[2],up to 30%
B3,inhibition of tumor cell growth,[2],up to 40%
same,unspecific cytotoxicity (LDH),[5],no unspecific cytotoxicity
same,tumor cell migration / cell motility,[10],clearly suppresses cell motility
same,inhibition of tumor cell growth,[11],up to 40%
same,unspecific cytotoxicity (LDH),[12],no unspecific cytotoxicity
